Data: the supplement of paper PMC6755084

B1: F1*; the commonest letter at each place (parent)
chain: GAGACCGCAACTGAAAAGTTGTTATCACTTGTCGTAAGACACTTTGGATGGGTTGAAGTTCTGCACGTAGAAGCAAAAGGC

Variants of: B1
Assay: fraction ligated after 30 min (ligated reads / total reads); higher = more ligase activity
Conditions: with F1*sub RNA substrate (template-directed ligation), 42 °C
Experimental: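 Chip-synthesised pool of F1* ligase ribozyme variants (all single and double substitutions, single, double and triple deletions in the catalytic core and GAA bulge, plus designed variants) was transcribed with T7 and reacted as a pool with excess substrate F1*sub for 30 min at 42 C in 50 mM EPPS pH 8.5, 25 mM MgCl2. Ligated and unligated bands were separated by PAGE, barcoded by RT and deep sequenced; fraction ligated = ligated reads / total reads per variant, relative activity = FL / FL of wild type (0.826). Sequences are the DNA template of the ribozyme.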

Variant | fraction ligated
GAGACCGCAACTGAAAAGTTGTTATCACTGGTCGTAAGATACTTTGGATGGGTTGAAGTTCTGCACGTAGAAGCAAAAGGC [T30G C40T] | 0.819
GAGACCGCAACTGAAAAGTTGTTATCACTGGTCGTAGGACACTTTGGATGGGTTGAAGTTCTGCACGTAGAAGCAAAAGGC [T30G A37G] | 0.852
GAGACCGCAACTGAAAAGTTGTTATCACTGGTCGTATGACACTTTGGATGGGTTGAAGTTCTGCACGTAGAAGCAAAAGGC [T30G A37T] | 0.86
GAGACCGCAACTGAAAAGTTGTTATCACTGGTCGTACGACACTTTGGATGGGTTGAAGTTCTGCACGTAGAAGCAAAAGGC [T30G A37C] | 0.849
GAGACCGCAACTGAAAAGTTGTTATCACTGGTCGTAAGACACTTTGGATGGGTTCAAGTTCTGCACGTAGAAGCAAAAGGC [T30G G55C] | 0.793
GAGACCGCAACTGAAAAGTTGTTATCACTGGTCGTAAGACACTTTGGATGGGTTAAAGTTCTGCACGTAGAAGCAAAAGGC [T30G G55A] | 0.846
GAGACCGCAACTGAAAAGTTGTTATCACTGGTCGTAAGACACTTTGGATGGGTTTAAGTTCTGCACGTAGAAGCAAAAGGC [T30G G55T] | 0.819
GAGACCGCAACTGAAAAGTTGTTATCACTGGGCGTAAGCCCCTTTGGATGGGTTGAAGTTCTGCACGTAGAAGCAAAAGGC [T30G T32G A39C A41C] | 0.845
GAGACCGCAACTGAAAAGTTGTTATCACTGGGGGTAACCCCCTTTGGATGGGTTGAAGTTCTGCACGTAGAAGCAAAAGGC [T30G T32G C33G G38C A39C A41C] | 0.862
GAGACCGCAACTGAAAAGTTGTTATCACTGGTCGTAAGACACTTTGGATGGGTTGACGTTCTGCACGTAGAAGCAAAAGGC [T30G A57C] | 0.806
GAGACCGCAACTGAAAAGTTGTTATCACTGGTCGTAAGACACTTTGGATGGGTTGATGTTCTGCACGTAGAAGCAAAAGGC [T30G A57T] | 0.828
GAGACCGCAACTGAAAAGTTGTTATCACTGGTCGTAAGACACTTTGGATGGGTTGAGGTTCTGCACGTAGAAGCAAAAGGC [T30G A57G] | 0.787
GAGACCGCAACTGAAAAGTTGTTATCACTGGTCGTAAGACACTTTGGATAGGTTGAAGTTCTGCACGTAGAAGCAAAAGGC [T30G G50A] | 0.513
GAGACCGCAACTGAAAAGTTGTTATCACTGGTCGTAAGACACTTTGGATCGGTTGAAGTTCTGCACGTAGAAGCAAAAGGC [T30G G50C] | 0.342
GAGACCGCAACTGAAAAGTTGTTATCACTGGTCGTAAGACACTTTGGATTGGTTGAAGTTCTGCACGTAGAAGCAAAAGGC [T30G G50T] | 0.712
GAGACCGCAACTGAAAAGTTGTTATCACTGGCGGTAACGCCCTTTGGATGGGTTGAAGTTCTGCACGTAGAAGCAAAAGGC [T30G T32C C33G G38C A39G A41C] | 0.835
GAGACCGCAACTGAAAAGTTGTTATCACTGGTCGTAAGACAATTTGGATGGGTTGAAGTTCTGCACGTAGAAGCAAAAGGC [T30G C42A] | 0.831

Variant | fraction ligated
GAGACCGCAACTGAAAAGTTGTTATCACTGGTCGTAAGACAGTTTGGATGGGTTGAAGTTCTGCACGTAGAAGCAAAAGGC [T30G C42G] | 0.834
GAGACCGCAACTGAAAAGTTGTTATCACTGGTCGTAAGACATTTTGGATGGGTTGAAGTTCTGCACGTAGAAGCAAAAGGC [T30G C42T] | 0.817
GAGACCGCAACTGAAAAGTTGTTATCACTGCTCGTAAGACACTTTGGATGGGTTGAAGTTCTGCACGTAGAAGCAAAAGGC [T30G G31C] | 0.845
GAGACCGCAACTGAAAAGTTGTTATCACTGTTCGTAAGACACTTTGGATGGGTTGAAGTTCTGCACGTAGAAGCAAAAGGC [T30G G31T] | 0.853
GAGACCGCAACTGAAAAGTTGTTATCACTGATCGTAAGACACTTTGGATGGGTTGAAGTTCTGCACGTAGAAGCAAAAGGC [T30G G31A] | 0.853
GAGACCGCAACTGAAAAGTTGTTATCACTGGTCGTAAGGCACTTTGGATGGGTTGAAGTTCTGCACGTAGAAGCAAAAGGC [T30G A39G] | 0.841
GAGACCGCAACTGAAAAGTTGTTATCACTGGTCGTAAGTCACTTTGGATGGGTTGAAGTTCTGCACGTAGAAGCAAAAGGC [T30G A39T] | 0.779
GAGACCGCAACTGAAAAGTTGTTATCACTGGTCGTAAGCCACTTTGGATGGGTTGAAGTTCTGCACGTAGAAGCAAAAGGC [T30G A39C] | 0.786
GAGACCGCAACTGAAAAGTTGTTATCACTGGTCGTAAGACACTTTAGATGGGTTGAAGTTCTGCACGTAGAAGCAAAAGGC [T30G G46A] | 0.791
GAGACCGCAACTGAAAAGTTGTTATCACTGGTCGTAAGACACTTTCGATGGGTTGAAGTTCTGCACGTAGAAGCAAAAGGC [T30G G46C] | 0.776
GAGACCGCAACTGAAAAGTTGTTATCACTGGTCGTAAGACACTTTTGATGGGTTGAAGTTCTGCACGTAGAAGCAAAAGGC [T30G G46T] | 0.785
GAGACCGCAACTGAAAAGTTGTTATCACTGCGCGTAAGCGCCTTTGGATGGGTTGAAGTTCTGCACGTAGAAGCAAAAGGC [T30G G31C T32G A39C C40G A41C] | 0.85
GAGACCGCAACTGAAAAGTTGTTATCACTGGTCGTAAGACACTTTGGATGGGTTGGAGTTCTGCACGTAGAAGCAAAAGGC [T30G A56G] | 0.757
GAGACCGCAACTGAAAAGTTGTTATCACTGGTCGTAAGACACTTTGGATGGGTTGTAGTTCTGCACGTAGAAGCAAAAGGC [T30G A56T] | 0.797
GAGACCGCAACTGAAAAGTTGTTATCACTGGTCGTAAGACACTTTGGATGGGTTGCAGTTCTGCACGTAGAAGCAAAAGGC [T30G A56C] | 0.786
GAGACCGCAACTGAAAAGTTGTTATCACTGGTCGTGAGACACTTTGGATGGGTTGAAGTTCTGCACGTAGAAGCAAAAGGC [T30G A36G] | 0.872
GAGACCGCAACTGAAAAGTTGTTATCACTGGTCGTTAGACACTTTGGATGGGTTGAAGTTCTGCACGTAGAAGCAAAAGGC [T30G A36T] | 0.841
